As usually defined, the Kd is the equilibrium constant for the complex coming apart.

Positions count from the first letter of the chain named. Names and notes keep the numbering of the source. Where two headings read alike, the source gives them in different places.

Assay [1] deals with IL-2 receptor βγ (Homo sapiens) (UniProt P14784). The note with it: cited from earlier work.
Assay [2] concerns the target biotinylated mouse IL-2Rα (mIL-2Rα ectodomain with C-terminal biotin acceptor peptide) (mouse). Nature of the assay: SPR.
Assay [3] shares this target. Nature of the assay: SPR. This is another data set of the same source. A general note: Surface plasmon resonance follows binding to a sensor surface in real time, without labels.
Assay [4] addresses mouse IL-2 (mIL-2, amino acids 1–149), hexahistidine-tagged (Mus musculus, UniProt P04351). Nature of the assay: SPR.

Chain of mouse IL-2 (mIL-2, amino acids 1–149), hexahistidine-tagged (P04351 21-169): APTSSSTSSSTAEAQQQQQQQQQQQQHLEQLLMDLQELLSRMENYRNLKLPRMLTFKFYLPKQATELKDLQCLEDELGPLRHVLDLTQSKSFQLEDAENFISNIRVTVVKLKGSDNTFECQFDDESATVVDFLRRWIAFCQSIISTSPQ
Chain of IL-2 receptor βγ (Homo sapiens) (P14784 27-240, chain 1 of 2): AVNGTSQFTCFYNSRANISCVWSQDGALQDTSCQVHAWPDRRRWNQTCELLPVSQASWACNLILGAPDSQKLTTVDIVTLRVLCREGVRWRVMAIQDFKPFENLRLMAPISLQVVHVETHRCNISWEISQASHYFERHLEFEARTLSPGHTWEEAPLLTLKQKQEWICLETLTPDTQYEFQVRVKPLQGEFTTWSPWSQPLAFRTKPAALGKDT
Chain of IL-2 receptor βγ (Homo sapiens) (P31785 23-262, chain 2 of 2, further chain): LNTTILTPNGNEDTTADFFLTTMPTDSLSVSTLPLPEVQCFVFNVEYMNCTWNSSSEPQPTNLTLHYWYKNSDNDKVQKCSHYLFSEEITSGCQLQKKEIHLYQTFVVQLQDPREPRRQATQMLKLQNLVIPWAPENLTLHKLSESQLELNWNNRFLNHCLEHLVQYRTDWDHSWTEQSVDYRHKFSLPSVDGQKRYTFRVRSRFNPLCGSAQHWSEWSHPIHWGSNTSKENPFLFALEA

As for IL-2 (from UniProt P60568), the Kd in assay [1] was 1 nM.

Consider “JES6–1 immunocytokine (IL-2 tethered to the N-terminus of the JES6–1 antibody light chain) (from UniProt P04351 21-169)”, for which the dissociation constant (Kd) in assay [2] was 290 nM; in assay [3], 220 nM.

As for “JES6–1 immunocytokine double mutant S34A+Y41A (VL) (from UniProt P04351 21-169)”, the dissociation constant (Kd) in assay [3] came out at 210 nM.

“JES6–1 immunocytokine double mutant S34A+Y101A (VL) (from UniProt P04351 21-169)” displayed a Kd in assay [3] of 82 nM.

For “JES6–1 immunocytokine mutant D55A (VH) (from UniProt P04351 21-169)”, the Kd in assay [2] was 230 nM.

Molecule “JES6–1 immunocytokine mutant D58A (VH) (from UniProt P04351 21-169)” registered an equilibrium dissociation constant (Kd) in assay [2] of 260 nM.

“JES6–1 immunocytokine mutant E60A (VH) (from UniProt P04351 21-169)” registered a Kd in assay [2] of 210 nM.

In assay [2], “JES6–1 immunocytokine mutant H100A (VL) (from UniProt P04351 21-169)” came in with a Kd of 240 nM.

The molecule “JES6–1 immunocytokine mutant R62A (VH) (from UniProt P04351 21-169)” yielded a Kd in assay [2] of 190 nM.

Consider “JES6–1 immunocytokine mutant S34A (VL) (from UniProt P04351 21-169)”, for which the Kd in assay [2] came to 170 nM.

“JES6–1 immunocytokine mutant Y41A (VL) (from UniProt P04351 21-169)” showed a Kd in assay [2] of 130 nM.

Take “JES6–1 immunocytokine mutant Y101A (VL) (from UniProt P04351 21-169)”: in assay [2], the dissociation constant (Kd) was determined as 140 nM.

Turning to “JES6–1 immunocytokine triple mutant S34A+Y41A+Y101A (VL) (from UniProt P04351 21-169)”, in assay [3], the dissociation constant Kd was 130 nM.

For the molecule “JY3 immunocytokine (JES6–1 immunocytokine double mutant Y41A+Y101A, VL) (from UniProt P04351 21-169)”, in assay [3], the Kd turned out to be 82 nM.

B1: biotinylated JES6–1 antibody mutant S34A (VL) (antibody, V domains shown)
VH: EIQLQQSGPELRRPGSSVKLSCKASGYNITDYLIHWVRHRPEHGLEWIGWIDPEDGETRYAQKFQSKATLTADTSSNAAYMQLSSLTPEDTATYFCARSLDSTYIYPFAYWGQGTLVTVSS
VL: DIVMTQSPFSLAVSEGEMVTINCKSSQSLLASGNQKNYLAWYQQKPGQSPKLLIYYASTGQSGVPDRFIGSGSGTDFTLTISDVQAEDLADYYCLQHYISPPTFGAGTKLELK
As for B1, binding in assay [4] was put at a Kd of 6.5 nM.

B2: biotinylated JES6–1 antibody mutant Y101A (VL) (antibody, V domains shown)
VH: B1 VH
VL: B1 VL with A31S, Y98A
Take B2: the Kd in assay [4] turned out to be 12 nM.

B3: biotinylated JES6–1 antibody mutant R62A (VH) (antibody, V domains shown)
VH: B1 VH with R59A
VL: B1 VL with A31S
Take B3: the Kd in assay [4] was found to be 4.3 nM.

B4: biotinylated JES6–1 antibody mutant Y41A (VL) (antibody, V domains shown)
VH: B1 VH
VL: B1 VL with A31S, Y38A
Consider B4, for which the Kd in assay [4] is 6.4 nM.

B5: biotinylated JES6–1 antibody mutant H100A (VL) (antibody, V domains shown)
VH: B1 VH
VL: B1 VL with A31S, H97A
Turning to B5, binding in assay [4] was characterised by a dissociation constant (Kd) of 62 nM.

B6: biotinylated JES6–1 antibody mutant E60A (VH) (antibody, V domains shown)
VH: B1 VH with E57A
VL: B1 VL with A31S
Consider B6, for which binding in assay [4] was characterised by a dissociation constant (Kd) of 56 nM.

B7: biotinylated JES6–1 antibody mutant D58A (VH) (antibody, V domains shown)
VH: B1 VH with D55A
VL: B1 VL with A31S
Turning to B7, binding in assay [4] was put at a Kd of 200 nM.

B8: biotinylated JES6–1 antibody mutant D55A (VH) (antibody, V domains shown)
VH: B1 VH with D52A
VL: B1 VL with A31S
With B8, the Kd in assay [4] amounted to 500 nM.
